Earlier results, collected in US20240139347A1, “COMPLEX, VASCULAR CONTRAST AGENT, X-RAY CONTRAST AGENT, METHOD FOR PRODUCING COMPLEX, AND IMAGING METHOD FOR CAPTURING STRUCTURAL CHANGE IN VESSEL” (TOHOKU UNIVERSITY, priority 2021, published 2024).

Conditions: Y. Nojima et al., Pharm. Res. 26 (2009)

B1: lactoferrin: lactoferrin (MW: 80 kDa), protein used in the complex of Example 1 (protein, UniProt P02788 20-710, looked up)
Lactotransferrin: GRRRSVQWCAVSQPEATKCFQWQRNMRKVRGPPVSCIKRDSPIQCIQAIAENRADAVTLDGGFIYEAGLAPYKLRPVAAEVYGTERQPRTHYYAVAVVKKGGSFQLNELQGLKSCHTGLRRTAGWNVPIGTLRPFLNWTGPPEPIEAAVARFFSASCVPGADKGQFPNLCRLCAGTGENKCAFSSQEPYFSYSGAFKCLRDGAGDVAFIRESTVFEDLSDEAERDEYELLCPDNTRKPVDKFKDCHLARVPSHAVVARSVNGKEDAIWNLLRQAQEKFGKDKSPKFQLFGSPSGQKDLLFKDSAIGFSRVPPRIDSGLYLGSGYFTAIQNLRKSEEEVAARRARVVWCAVGEQELRKCNQWSGLSEGSVTCSSASTTEDCIALVLKGEADAMSLDGGYVYTAGKCGLVPVLAENYKSQQSSDPDPNCVDRPVEGYLAVAVVRRSDTSLTWNSVKGKKSCHTAVDRTAGWNIPMGLLFNQTGSCKFDEYFSQSCAPGSDPRSNLCALCIGDEQGENKCVPNSNERYYGYTGAFRCLAENAGDVAFVKDVTVLQNTDGNNNEAWAKDLKLADFALLCLDGKRKPVTEARSCHLAMAPNHAVVSRMDKVERLKQVLLHQQAKFGRNGSDCPDKFCLFQSETKNLLFNDNTECLARLHGKTTYEKYLGPQYVAGITNLKKCSTSPLLEACEFLRK
  half-life in blood of lactoferrin alone: about 7.8 min
